Molecular target: heparan sulfate proteoglycan (HSPG) on HeLa cells
Experiment: cell-based or functional assay

B1: CT-59 (antibody, part only; not given: TMab4 heavy chain variable domain, V domains shown, part only)
VL: DIQMTQSPSSLSASVGDRVTITCKSSQSLLNSRDGKNYLAWYQQKPGKAPKLLIYWASTRESGVPSRFSGSGSGTDFTLTISSLQPEDFATYFCQQYWYWMYTFGQGTKVEIKR
Question: How did the Alexa488 fluorescence intensity in HeLa cells (confocal microscopy, 1 µM, 6 h) turn out when B1 was run?
Answer: 20%

Reference: patent US20200339681A1
